The supplement of paper PMC10567573
± gives the standard deviation.

Experiment: protein stability index of a GFP-peptide fusion (GPS, HEK-293T) (PSI 1-6); higher = more stable
[1] = treatment: DMSO, c terminus: a fixed tail appended
[2] = treatment: MLN4924 1 uM, 8 h, c terminus: a fixed tail appended
[3] = treatment: DMSO, c terminus: native
[4] = treatment: MLN4924 1 uM, 8 h, c terminus: native
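Note: 24-mer peptide tiles fused after GFP, lentivirally expressed, FACS-sorted into six equal bins by GFP/DsRed ratio, decoded by Illumina sequencing, PSI is the read-weighted mean bin number.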

Row | Sequence | protein stability index [1] | protein stability index [2] | protein stability index [3] | protein stability index [4]
1 | VGGQDTGATWRTSGLLEELNAEAG [C18orf25] | 4.57 ± 0.2 | 4.59 ± 0.34 |  | 
2 | VGKSLTILGRTFFIYDCDPFTRRY [EFHC1] | 2.47 ± 0.54 | 2.7 ± 0.54 |  | 
3 | VGLAAVNSMPVDNRNHNEGMVTRC [CHGB] | 4.27 ± 0.23 | 4.3 ± 0.37 |  | 
4 | VGYTRGLHVWQITWAMRQRGTHAV [SPSB1] | 2.37 ± 0.52 | 2.55 ± 0.52 |  | 
5 | VIKGVLFRIFIIWAISSWFRRGPA [CLPTM1] | 2.75 ± 0.58 | 2.87 ± 0.68 |  | 
6 | VITALKCHKYDRNIQVTGSAALFY [ZER1] | 2.84 ± 0.18 | 2.85 ± 0.47 |  | 
7 | VKFCLLGALLAPIRVLLAFIVLFL [LPCAT4] | 2.15 ± 0.29 | 1.86 ± 0.2 |  | 
8 | VKLLVDLELSYGFENGQKAAVVHH [TOR1AIP2] | 2.22 ± 0.26 | 2.3 ± 0.12 |  | 
9 | VKTKKNAPSATIHQGEEEGPLDIW [FBXO34] | 4.21 ± 0.2 | 4.4 ± 0.25 |  | 
10 | VLEIEQSMNRVKNISDADVHNAMD [FEM1B] | 4.13 ± 0.14 | 4.32 ± 0.23 |  | 
11 | VLKLLLLLLLFGVAGGLVACRVTE [LRRC59] | 2.77 ± 0.73 | 2.68 ± 0.81 |  | 
12 | VLMDTQGAFDSQSTVKDCATIFAL [ATL3] | 2.48 ± 0.35 | 2.55 ± 0.21 |  | 
13 | VLTDSNHVPLQRLSLLVHNVSVMH [FBXO33] | 1.96 ± 0.3 | 2.22 ± 0.28 |  | 
14 | VMAWVKYSIQERRPQLPQVLQHVR [KLHL20] | 2.41 ± 0.37 | 2.04 ± 0.34 |  | 
15 | VNGSWYIQDLCEMLGKYGSSLEFT [CASP6] | 2.95 ± 0.65 | 2.67 ± 0.55 |  | 
16 | VNKLKWNLAAMTPHDFIEHFLSKM [CCND1] | 2.25 ± 0.35 | 2.51 ± 0.25 |  | 
17 | VPQIFKYGETCFPKGRFERKRNPS [ZNF24] | 3.8 ± 0.76 | 3.93 ± 1.1 |  | 
18 | VPSEEPQESDQTEEHESGIEQFSE [IQUB] | 5.69 ± 0.13 | 5.57 ± 0.38 |  | 
19 | VPTCSMCKVFGIHKACEVAPLQSV [TRIM63] | 2.64 ± 0.32 | 2.73 ± 0.14 |  | 
20 | VQHQRVHTGEKPYKCLECGKAFSQ [ZNF24] | 3.29 ± 0.55 | 3.66 ± 0.46 |  | 
21 | VQVPEAWEELLTMKVEAKSHLQWQ [ZSCAN9] | 2.46 ± 0.65 | 2.54 ± 0.26 |  | 
22 | VSARSREGRGGRPGSTRPHRSACS [HAGHL] | 4.64 ± 0.2 | 4.69 ± 0.44 |  | 
23 | VSERSFDNVRSLKVESGAWIGYEH [CRYBA1] | 2.91 ± 0.47 | 3.02 ± 0.33 |  | 
24 | VSHVGWDPQNGFDVNNLDPDLRSL [WAS] | 3.9 ± 0.24 | 3.98 ± 0.3 |  | 

Row | Sequence | protein stability index [1] | protein stability index [2] | protein stability index [3] | protein stability index [4]
25 | VSIKEAAGSSNLPAPERTMAGLSK [VENTX] | 4.28 ± 0.3 | 4.33 ± 0.19 |  | 
26 | VSLKQEGDDQPSETDHLSMEEEDP [TPRG1] | 5.61 ± 0.22 | 5.63 ± 0.2 |  | 
27 | VSSSQDGKVIVWDSFTTNKEHAVT [GNB5] | 3.51 ± 0.23 | 3.67 ± 0.38 |  | 
28 | VTPEAKNLINQMLTINPAKRITAH [CAMK2B] | 2.8 ± 0.14 | 2.95 ± 0.3 |  | 
29 | VTYSLLKRLKERSLDTLLEAVESR [SMAD6] | 2.26 ± 0.17 | 2.33 ± 0.29 |  | 
30 | VVHRSDEQQHYFNTPFQLSIAPPE [PPTC7] | 3.96 ± 0.28 | 4 ± 0.24 |  | 
31 | VVPDVRSVVTTARMQVLKRQVQSL [SMARCE1] | 2.5 ± 0.14 | 2.85 ± 0.21 |  | 
32 | VWYVKKFGRYLEHLEVKFMNPYNA [FBXO39] | 2.66 ± 0.53 | 2.02 ± 0.45 |  | 
33 | VYCGAGVQKEHEEYMKNLLKVGGI [PCMTD2] | 2.75 ± 0.22 | 2.9 ± 0.28 |  | 
34 | WDLRFRIIHETAVGMNFLHCMAPP [RIPK4] | 2.89 ± 0.73 | 2.82 ± 0.83 |  | 
35 | WFLNALHSALGGTKKKKKTIVTDV [USP39] | 2.6 ± 0.61 | 2.19 ± 0.47 |  | 
36 | WGRLTSYSGGGYYLDLPGSRQGSA [PKD2L1] | 2.63 ± 0.18 | 2.69 ± 0.18 |  | 
37 | WIGYEHTSFCGQQFILERGEYPRW [CRYBA1] | 2.69 ± 0.41 | 2.21 ± 0.15 |  | 
38 | WIHCFEGVTAIIFCVALSDYDLVL [GNAI1] | 3.2 ± 0.53 | 3.22 ± 0.24 |  | 
39 | WNFDFVTETPLEGDFAWERVRGLG [CDKN1A] | 2.54 ± 0.42 | 2.8 ± 0.39 |  | 
40 | WNVAAPLYLKQSDLASAAAKQIME [INTS4] | 2.67 ± 0.13 | 2.81 ± 0.05 |  | 
41 | WPSAKSAGWTLATLGEQGLPHQSH [SCNN1D] | 3.36 ± 0.43 | 3.17 ± 0.4 |  | 
42 | WQVLKTHPGDPRFQCSLWHLYPL [POLD4] |  |  | 2.42 ± 0.62 | 2.14 ± 0.33
43 | WRKRFTEQPITDFCSVIRINSTAP [ZNF277] | 2.48 ± 0.55 | 2.23 ± 0.087 |  | 
44 | WTLEDEIHSPAHPEIEKADDHLQQ [ZNF649] | 5.2 ± 0.34 | 5.26 ± 0.3 |  | 
45 | WVHKHFTEDIQTRQYRSIEVLIGA [SRPK2] | 2.37 ± 0.18 | 2.27 ± 0.41 |  | 
46 | YAADRNCMWSKKCSGVACLVKDNP [WASL] | 3.08 ± 0.95 | 2.49 ± 0.3 |  | 
47 | YCHPDSETDEDEEEGDEQQRLLNT [GMCL1] | 5.33 ± 0.37 | 5.2 ± 0.36 |  | 
48 | YEETGFYEIEIQAEDGGAYLATAK [PCDHGA10] | 3.57 ± 0.14 | 3.72 ± 0.29 |  | 

Row | Sequence | protein stability index [1] | protein stability index [2] | protein stability index [3] | protein stability index [4]
49 | YEIRVKTNLPIFKLKESTVRRRYS [SNX3] | 2.44 ± 0.4 | 2.27 ± 0.22 |  | 
50 | YGPQVNNISHTKEKKKGKAKKKRL [WASL] | 4.48 ± 0.34 | 4.68 ± 0.29 |  | 
51 | YGQFTCEGCKSFFKRSVRRNLSYT [NR2F2] | 2.33 ± 0.12 | 2.33 ± 0.21 |  | 
52 | YGYAAQARARERERLAHSRAAAAA [KCNA4] | 3.9 ± 0.26 | 4.02 ± 0.097 |  | 
53 | YHLEKQTALLGGPRRCHSAPPQGS [PLEKHN1] | 3.28 ± 0.036 | 3.14 ± 0.53 |  | 
54 | YIGTHEYPHFSHRPSTLQAASTPQ [OAS1] | 2.61 ± 0.56 | 3.16 ± 0.48 |  | 
55 | YKCAECGKSFCHSTHLTVHRRIHT [ZNF8] | 3.9 ± 0.18 | 4.42 ± 0.16 |  | 
56 | YLLQFARKPVEAESVEGVVRILLE [INTS4] | 2.19 ± 0.24 | 2.27 ± 0.25 |  | 
57 | YLMKTKQFRLKEAFDYIKQRRSMV [DUSP5] | 2.19 ± 0.38 | 2.11 ± 0.33 |  | 
58 | YLSPLERKRLAREMQLSEVQIKTW [VENTX] | 2.5 ± 0.2 | 2.7 ± 0.24 |  | 
59 | YMAICKPLHELITMNRRVCVLMLL [OR4A15] | 2.79 ± 0.49 | 2.35 ± 0.32 |  | 
60 | YMDTKLLVARFLEQSSCTMTPDIH [FAM189A2] | 2.15 ± 0.45 | 2.18 ± 0.084 |  | 
61 | YNWEEERATNHLDQVPSMQDGSES [SPAG8] | 5.33 ± 0.23 | 5.44 ± 0.15 |  | 
62 | YPPLEGHVRQGVFSSLNHIVEKRV [INTS3] | 3.17 ± 0.3 | 3.38 ± 0.38 |  | 
63 | YRFDSSSCSSEDNLSLVCLPRSED [DRICH1] | 4.46 ± 0.16 | 4.51 ± 0.15 |  | 
64 | YRQPIPVQELVLEDLQDGDVRMGG [NET1] | 4.4 ± 0.29 | 4.56 ± 0.34 |  | 
65 | YRTWNVVVHDWLYSYVYQDGLRLL [SOAT2] | 3.02 ± 0.41 | 2.82 ± 0.84 |  | 
66 | YSPRRSRGSPRYSPRHSRSRSRT [SRSF1] |  |  | 4.18 ± 0.35 | 4.49 ± 0.26
67 | YTFLYLVCISTKTQCSEEDQCKIN [FEM1B] | 2.65 ± 0.51 | 2.33 ± 0.2 |  | 
68 | YTGPSSSGRFAGREWYYGNVTRHQ [NCK2] | 2.35 ± 0.31 | 2.65 ± 0.58 |  | 
69 | YVKVLHHMVKISGGPHISYPPLHE [MAGEA3] | 2.33 ± 0.61 | 2.58 ± 0.31 |  | 
70 | YVPNMLGIIPYAGIDLAVYETLKN [SLC25A25] | 2.87 ± 0.19 | 2.61 ± 0.5 |  | 
